In assay [1] the target is TMEM16A-GFP fusion protein on HEK293 stable cells (UniProt Q5XXA6). In words: flow cytometry on HEK293-TMEM16A cells.
Assay [2] has as its target peptide 46 (cyclic, flanked by cysteines, second library) (human). Description: peptide microarray (RepliTope), cyclic peptide.
In assay [3] the target is peptide 44 (cyclic, flanked by cysteines, second library) (human). In words: peptide microarray (RepliTope), cyclic peptide.
For assay [4], the target named is peptide 45 (cyclic, flanked by cysteines, second library) (human). Description: peptide microarray (RepliTope), cyclic peptide.
Assay [5] has as its target T1, peptide 44 (linear 15-mer of the ECD1-3 library) (human).
T1 sequence (peptide): VQISRYKDYREPPWS
Description: peptide microarray (RepliTope), linear 15-mer.

In assay [6] the target is T2, peptide 46 (linear 15-mer of the ECD1-3 library) (human).
T2 sequence (peptide): KDYREPPWSENKYDI
Description: peptide microarray (RepliTope), linear 15-mer.

Assay [7] concerns the target T3, peptide 45 (linear 15-mer of the ECD1-3 library) (human).
T3 sequence (peptide): SRYKDYREPPWSENK
Description: peptide microarray (RepliTope), linear 15-mer.

In another assay the target is SP31 ab64085. Description: peptide blocking of SP31 ab64085, western blot of TMEM16A.

Chain of UniProt Q5XXA6 (Q5XXA6 whole entry, the tested form may be a part): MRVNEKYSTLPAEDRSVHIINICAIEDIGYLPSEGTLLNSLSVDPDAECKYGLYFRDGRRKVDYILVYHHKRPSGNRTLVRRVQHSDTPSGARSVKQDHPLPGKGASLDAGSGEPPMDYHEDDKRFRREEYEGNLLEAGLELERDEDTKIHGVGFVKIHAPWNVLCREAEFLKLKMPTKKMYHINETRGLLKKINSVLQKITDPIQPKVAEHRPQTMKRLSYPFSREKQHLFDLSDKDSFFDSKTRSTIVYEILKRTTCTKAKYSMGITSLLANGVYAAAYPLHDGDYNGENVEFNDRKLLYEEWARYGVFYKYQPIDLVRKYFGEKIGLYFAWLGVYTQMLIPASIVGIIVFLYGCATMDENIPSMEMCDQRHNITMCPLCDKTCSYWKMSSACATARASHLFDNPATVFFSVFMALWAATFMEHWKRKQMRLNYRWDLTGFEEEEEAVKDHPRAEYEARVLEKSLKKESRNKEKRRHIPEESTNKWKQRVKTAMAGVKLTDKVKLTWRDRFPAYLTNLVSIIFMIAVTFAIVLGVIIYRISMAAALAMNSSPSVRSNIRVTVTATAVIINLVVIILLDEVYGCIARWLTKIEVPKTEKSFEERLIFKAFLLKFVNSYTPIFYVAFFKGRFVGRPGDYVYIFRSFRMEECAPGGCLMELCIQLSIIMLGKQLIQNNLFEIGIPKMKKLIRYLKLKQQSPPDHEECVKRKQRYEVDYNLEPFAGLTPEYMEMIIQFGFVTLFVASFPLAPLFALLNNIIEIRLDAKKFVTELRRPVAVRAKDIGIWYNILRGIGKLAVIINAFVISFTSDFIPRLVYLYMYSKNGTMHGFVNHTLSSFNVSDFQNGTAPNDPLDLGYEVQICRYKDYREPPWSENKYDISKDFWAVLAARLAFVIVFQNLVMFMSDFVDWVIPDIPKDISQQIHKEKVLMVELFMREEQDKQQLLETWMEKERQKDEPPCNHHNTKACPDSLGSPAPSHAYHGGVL

With “isotype control antibody (flow cytometry with 12E11)”, the median fluorescence intensity in assay [1] was 93.

B1: 12E11 (antibody, V domains shown)
VH: QVQLKESGPGLVQPSQTLTLTCTVSGFSLSNYDMHWVRQSPGKGLDWMGVIWGNGKTQYNSGLTSRLSISRDTSKSQVFLKMNSLQTEDTAIYFCTRSGYYYDGSYYSLFDYWGQGVMVTVSS
VL: DVVLTQTPPTLSATIGQSVSISCRSSQSLLHSNGNTYLNWLLQRPGQPPQLLIYLVSRLESGVPNRFSGSGSGTDFTLKISGVEAEDLGVYYCVQSTHAPAFGGGTKLELK
On to B1, for which the signal (AU, arbitrary unit) in assay [2] and in assay [6] was 15000 AU throughout. Also, the signal over background signal (after subtraction of the signals of the unrelated antibody) in assay [2] was greater than 3 times; in assay [3] it was greater than 3 times; in assay [4] it was greater than 3 times; in assay [5] it was 3 times; in assay [6] it was greater than 3 times; in assay [7], greater than 3 times.

Take DHEECVKRKQRYEVDYNLE [Peptide #2]: the peptide concentration at which pre-incubation blocked the western blot signal with SP31 ab64085 was found to be 0.01 µg/mL.

The values are drawn from WO2014084859A1.
